Data: patent publication US20060051842A1 (AMRAD OPERATIONS, published 2006)

How the values were obtained:
[1] = molecular target: T1, Nr1 (murine IL-11 receptor α-chain) expressed in Ba/F3 cells (murine, UniProt Q64385 24-432); experiment: Scatchard analysis of 125I-IL-11 saturation binding to Ba/F3 cells expressing Nr1
T1 construct: also called Ba/F3 cells expressing Nr1; Ba/F3 Nr1
T1 sequence: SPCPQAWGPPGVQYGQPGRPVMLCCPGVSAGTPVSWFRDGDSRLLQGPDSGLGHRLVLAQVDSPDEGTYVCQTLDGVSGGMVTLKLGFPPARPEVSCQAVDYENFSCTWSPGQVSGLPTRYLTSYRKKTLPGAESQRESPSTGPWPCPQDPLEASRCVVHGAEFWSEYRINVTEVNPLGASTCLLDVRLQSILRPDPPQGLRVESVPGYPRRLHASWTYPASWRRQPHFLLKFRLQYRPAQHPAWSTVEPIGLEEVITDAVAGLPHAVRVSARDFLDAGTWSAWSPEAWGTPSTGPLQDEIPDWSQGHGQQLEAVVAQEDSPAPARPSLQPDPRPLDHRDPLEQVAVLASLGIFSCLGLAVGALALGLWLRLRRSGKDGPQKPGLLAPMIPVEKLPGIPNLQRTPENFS
Source text: FIGS. 4A-4D are graphical representations of scatchard analyses of saturation isotherms of IL-11 binding to various cell lines; (4A) parental Ba/F3 cells (●), Ba/F3 cells expressing Nr1 (◯), Ba/F3 cells expressing Nr1 and the LIF receptor (▪), (4B) Ba/F3 cells expressing the LIF receptor and gp130 (▪), Ba/F3 cells expressing Nr1 and gp130 (●), Ba/F3 cells expressing the Nr1, LIF receptor and gp130 (◯), (4C) parental M1 cells (▪), M1 cells expressing Nr1 (◯), and (4D) 3T3-L1 cells (●) were incubated with various concentrations of labelled IL-11 in the presence of absence of a 10-100-fold excess of unlabelled IL-11. After 18 hours incubation on ice, bound and free IL-11 were separated by centrifugation through foetal calf serum. Bound and free ¹²⁵I-IL-11 was quantitated in a γ-counter and the data was depicted as a Scatchard transformation. In each case data were normalised for cell number and shown as binding to 10⁶ cells.

[2] = molecular target: T2, Nr1, gp130 and the LIF receptor co-expressed in Ba/F3 cells (murine; mouse; human, UniProt Q00560 23-917; P42702 45-1097); experiment: competition with 125I-IL-11 on Ba/F3 cells expressing Nr1, gp130 and the LIF receptor
T2 construct: whole, on cells; also called Ba/F3 Nr1/gp130/LIF receptor
Method: (§1) After 18 hours incubation on ice, bound and free IL-11 were separated by centrifugation through foetal calf serum. Bound and free ¹²⁵I-IL-11 were quantitated in a γ-counter and the amount of binding was expressed as a percentage of that observed in the absence of competitor.

[3] = molecular target: T3, LIF receptor and gp130 expressed by parental M1 cells (mouse; murine, UniProt P42703 44-1092; Q00560 23-917); experiment: binding of 125I-LIF to parental M1 cells
T3 construct: whole, on cells; Untransfected cells

[4] = molecular target: T1, Nr1 (murine IL-11 receptor α-chain) …; experiment: binding of 125I-LIF to transfected Ba/F3 cells
[5] = molecular target: T3, LIF receptor and gp130 expressed by …; experiment: binding of 125I-labelled human IL-11 to cells
[6] = molecular target: T1, Nr1 (murine IL-11 receptor α-chain) …; experiment: binding of 125I-OSM to transfected Ba/F3 cells
[7] = molecular target: T4, Nr1 and gp130 co-expressed in Ba/F3 cells (murine; mouse, UniProt Q00560 23-917); experiment: competition with 125I-IL-11 on Ba/F3 cells expressing Nr1 and gp130; competitor of labelled IL-11
T4 construct: whole, on cells; also called Ba/F3 Nr1/gp130; Ba/F3 cells expressing the murine IL-11rα and murine gp130
T4 sequence 1: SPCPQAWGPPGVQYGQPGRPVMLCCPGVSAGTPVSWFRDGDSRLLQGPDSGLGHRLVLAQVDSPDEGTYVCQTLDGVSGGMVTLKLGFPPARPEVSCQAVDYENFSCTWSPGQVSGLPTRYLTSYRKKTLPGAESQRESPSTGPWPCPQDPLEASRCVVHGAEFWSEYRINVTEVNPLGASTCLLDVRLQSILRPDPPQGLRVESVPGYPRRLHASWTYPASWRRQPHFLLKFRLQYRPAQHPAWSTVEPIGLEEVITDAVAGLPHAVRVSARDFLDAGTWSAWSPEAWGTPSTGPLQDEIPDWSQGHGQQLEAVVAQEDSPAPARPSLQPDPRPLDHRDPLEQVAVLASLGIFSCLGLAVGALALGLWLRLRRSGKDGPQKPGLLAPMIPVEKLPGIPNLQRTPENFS
T4 sequence 2: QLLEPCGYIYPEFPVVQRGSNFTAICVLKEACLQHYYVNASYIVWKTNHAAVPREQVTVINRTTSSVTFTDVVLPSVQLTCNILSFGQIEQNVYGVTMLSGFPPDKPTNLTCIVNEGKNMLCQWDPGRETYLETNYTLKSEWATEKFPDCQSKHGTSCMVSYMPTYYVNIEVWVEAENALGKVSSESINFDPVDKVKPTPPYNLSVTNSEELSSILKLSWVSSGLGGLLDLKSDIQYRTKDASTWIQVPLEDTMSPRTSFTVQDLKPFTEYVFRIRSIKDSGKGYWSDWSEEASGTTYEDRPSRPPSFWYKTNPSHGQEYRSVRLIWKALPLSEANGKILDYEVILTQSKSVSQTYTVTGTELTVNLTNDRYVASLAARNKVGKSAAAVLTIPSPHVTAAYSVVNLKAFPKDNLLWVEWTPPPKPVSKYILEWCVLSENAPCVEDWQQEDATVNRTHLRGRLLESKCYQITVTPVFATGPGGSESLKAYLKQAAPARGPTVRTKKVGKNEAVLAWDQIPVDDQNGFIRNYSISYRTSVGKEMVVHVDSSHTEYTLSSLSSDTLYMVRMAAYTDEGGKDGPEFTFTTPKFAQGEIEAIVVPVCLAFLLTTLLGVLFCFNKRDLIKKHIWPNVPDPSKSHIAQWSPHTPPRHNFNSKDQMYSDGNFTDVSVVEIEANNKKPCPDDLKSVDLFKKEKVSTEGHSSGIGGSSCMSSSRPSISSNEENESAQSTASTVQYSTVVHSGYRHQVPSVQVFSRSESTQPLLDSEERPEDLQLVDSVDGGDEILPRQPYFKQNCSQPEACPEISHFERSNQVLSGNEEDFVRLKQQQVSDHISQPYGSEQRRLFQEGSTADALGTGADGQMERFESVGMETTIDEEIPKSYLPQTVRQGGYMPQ
Method: as §1

[8] = molecular target: T3, LIF receptor and gp130 expressed by …; experiment: binding of 125I-OSM to parental M1 cells

T3 sequence (P42703 44-1092, one chain of several): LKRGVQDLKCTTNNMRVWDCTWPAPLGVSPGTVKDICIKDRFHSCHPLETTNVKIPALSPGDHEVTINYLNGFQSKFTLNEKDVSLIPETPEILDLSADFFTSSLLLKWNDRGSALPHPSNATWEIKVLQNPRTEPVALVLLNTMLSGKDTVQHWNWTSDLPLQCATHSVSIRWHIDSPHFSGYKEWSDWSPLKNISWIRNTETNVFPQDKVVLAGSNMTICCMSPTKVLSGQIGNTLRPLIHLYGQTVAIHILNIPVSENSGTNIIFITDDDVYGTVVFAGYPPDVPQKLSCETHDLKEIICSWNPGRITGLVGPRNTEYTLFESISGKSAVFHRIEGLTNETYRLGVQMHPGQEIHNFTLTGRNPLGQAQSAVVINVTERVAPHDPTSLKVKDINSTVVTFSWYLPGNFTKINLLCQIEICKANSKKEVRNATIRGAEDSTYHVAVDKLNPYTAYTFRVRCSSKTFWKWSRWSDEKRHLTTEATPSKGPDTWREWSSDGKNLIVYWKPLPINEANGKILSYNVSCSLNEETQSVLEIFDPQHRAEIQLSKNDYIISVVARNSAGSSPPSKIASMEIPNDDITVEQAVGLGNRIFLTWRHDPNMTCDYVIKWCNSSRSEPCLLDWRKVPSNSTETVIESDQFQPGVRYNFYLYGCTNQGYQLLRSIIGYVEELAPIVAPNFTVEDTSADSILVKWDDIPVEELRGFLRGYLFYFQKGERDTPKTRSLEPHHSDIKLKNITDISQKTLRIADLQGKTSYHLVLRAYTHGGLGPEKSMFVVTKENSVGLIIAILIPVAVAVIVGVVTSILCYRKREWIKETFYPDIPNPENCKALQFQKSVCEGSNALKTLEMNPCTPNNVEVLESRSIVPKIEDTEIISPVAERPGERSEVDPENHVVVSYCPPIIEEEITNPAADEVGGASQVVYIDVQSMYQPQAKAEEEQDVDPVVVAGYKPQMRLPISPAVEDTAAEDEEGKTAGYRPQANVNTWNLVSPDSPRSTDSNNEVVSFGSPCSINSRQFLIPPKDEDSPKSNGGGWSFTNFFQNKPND
T2 sequence (P42702 45-1097, one chain of several): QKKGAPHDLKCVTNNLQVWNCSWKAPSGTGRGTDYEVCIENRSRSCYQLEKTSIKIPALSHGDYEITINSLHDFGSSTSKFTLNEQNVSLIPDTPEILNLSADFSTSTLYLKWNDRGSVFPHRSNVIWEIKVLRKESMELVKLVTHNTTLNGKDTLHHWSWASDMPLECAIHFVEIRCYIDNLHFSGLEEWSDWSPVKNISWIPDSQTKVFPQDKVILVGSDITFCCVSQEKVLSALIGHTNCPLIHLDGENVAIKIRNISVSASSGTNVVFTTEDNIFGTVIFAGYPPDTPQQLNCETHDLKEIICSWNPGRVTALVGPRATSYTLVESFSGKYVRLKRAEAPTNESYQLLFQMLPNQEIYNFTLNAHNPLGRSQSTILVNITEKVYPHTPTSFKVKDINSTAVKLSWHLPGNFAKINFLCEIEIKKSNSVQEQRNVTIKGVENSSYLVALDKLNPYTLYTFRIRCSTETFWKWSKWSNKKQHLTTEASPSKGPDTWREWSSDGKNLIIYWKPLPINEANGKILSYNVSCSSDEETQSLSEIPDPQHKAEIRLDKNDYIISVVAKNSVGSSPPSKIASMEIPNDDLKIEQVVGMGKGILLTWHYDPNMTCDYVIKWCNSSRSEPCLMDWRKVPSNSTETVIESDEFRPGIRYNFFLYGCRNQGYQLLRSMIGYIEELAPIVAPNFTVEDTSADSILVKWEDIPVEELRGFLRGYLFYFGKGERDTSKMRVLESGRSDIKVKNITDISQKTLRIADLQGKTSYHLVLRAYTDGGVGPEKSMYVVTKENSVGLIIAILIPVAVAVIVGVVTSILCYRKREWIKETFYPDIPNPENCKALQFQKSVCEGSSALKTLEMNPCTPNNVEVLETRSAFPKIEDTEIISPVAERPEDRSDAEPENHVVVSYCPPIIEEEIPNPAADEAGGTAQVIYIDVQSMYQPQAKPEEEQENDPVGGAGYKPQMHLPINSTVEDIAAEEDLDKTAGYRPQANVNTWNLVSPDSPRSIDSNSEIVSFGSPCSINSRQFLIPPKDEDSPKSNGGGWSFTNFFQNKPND

B1: IL-11 (purchased from PeproTech; used in Examples 7, 8, 12 and 13) (ligand)
chain: PGPPPGPPRVSPDPRAELDSTVLLTRSLLADTRQLAAQLRDKFPADGDHNLDSLPTLAMSAGALGALQLPGVLTRLRADLLSYLRHVQWLRRAGGSSLKTLEPELGTLQARLDRLLRRLQLLMSRLALPQPPPDPPAPPLAPPSSAWGGIRAAHAILGGLHLTLDWAVRGLLLLKTRL
modifications: The tracer form (125I-IL-11) was radio-iodinated with monoiodinated Bolton-Hunter reagent on amino groups. The positions are not stated and the letters are unchanged.
notes: Species ambiguous: 'Murine' may apply to IL-3 only; also called labelled IL-11
Q: With B1 as the binder, how does the Kd [1] read?
A: ~0.01 nM

B2: human LIF (produced using the pGEX system) (ligand)
chain: not shown
modifications: 125I-labelled where used as labelled ligand
Q: Which results are given for B2?
A: binding result [2]: binds; binding result [3]: binds; binding result [4]: no binding

B3: N-terminal flag human IL-11 (expressed in COS-M6 cells, used in ligand binding studies) (ligand)
chain: DYKDDDDKPGPPPGPPRVSPDPRAELDSTVLLTRSLLADTRQLAAQLRDKFPADGDHNLDSLPTLAMSAGALGALQLPGVLTRLRADLLSYLRHVQWLRRAGGSSLKTLEPELGTLQARLDRLLRRLQLLMSRLALPQPPPDPPAPPLAPPSSAWGGIRAAHAILGGLHLTLDWAVRGLLLLKTRL
modifications: radio-iodinated (125I) with Bolton-Hunter reagent
notes: mature; also called radio-labelled human IL-11
Q: Does B3 bind [5]?
A: no binding

B4: human OSM (produced using the pGEX system) (ligand, UniProt P13725 26-221, looked up)
chain: AAIGSCSKEYRVLLGQLQKQTDLMQDTSRLLDPYIRIQGLDVPKLREHCRERPGAFPSEETLRGLGRRGFLQTLNATLGCVLHRLADLEQRLPKAQDLERSGLNIEDLEKLQMARPNILGLRNNIYCMAQLLDNSDTAEPTKAGRGASQPPTPTPASDAFQRKLEGCRFLHGYHRFMHSVGRVFSKWGESPNRSRR
modifications: 125I-labelled where used as labelled ligand
Q: Which results are given for B4?
A: binding result [6]: no binding; binding result [2]: binds; binding result [7]: binds; binding result [8]: binds
